The values below come from the DeepSol protein solubility set.

This data set can be described thus: soluble on expression in E. coli; label from the status in PepcDB or PDB records.
For the sequence “MSLDLNKYKDRIITLAKPYLNREFDFADVKLTLISGLGVEINGLRIADNPEFGSEDFLSLQSLRIKVALFPLLKKKIQIKKLIMDEPVVRLVRNSNGVFNFSDMASDAEEDEKPQAKDEKRKEKKSGSEKKPDSEHNIFLAGLMVSQFTLHSGQIHFLDNFVPDAPVTMVFDSLNIELKNVSLYKPIRIYASAGLQGTTEQNLLIKGMVGPVGDNMDLVGLAMDIHVSVQNVFLHKFVPYIPDGLMLSPLEGILYMTANIKGSVHSGLDLESVIQGEKLVMSIKDSDEKIQNVNITLKEKIKYDDRKGDIGFQQLDLALNDNNVSLTGTIENIKTDPQWDVTLMAKMNALDEALALYPVFKEALPQDFRFTGPLNMEITSSGSKDAMQISGHTDMTRAEILYGEVFKKQKNIPFQISLKANKIADIIQLEAFAVNLQNASLNSSGSIEDMVNPRFDLVSTANEFSLKGWDAIVPLLKEYEPEGSVSIKNYMKGNFDDAFVNLHVSSPKLLFKFPASSDKKEDENTKQRKDVAESIRFELLAKKLADNITADGGLEMGNGTILDINFEEAKGKYSFQDDILKIQSFQMRTFEGDISLTGNYDSKSMQWDASPIINAVRIDGVVDAFTQYRGMMKGVFSGSFDMGGSLGKNDKMVTNANGSFRLLQGEIENVNLMETIIDSLLGIKEVYKYAGEKKDVLEKYDVTRFDSLDGEFSLLNDMLDLKKCYLENIYTPDVPGSDAKLKGDINFDTGKLDLSGKVILSSEHSEKLTKKAKPLKALLNEKGNIVLPVTVTGTMSNPKPLLDTSYVLNAMMNYYGKEELEKGLDKLKGKLGLEKLGLEKLWQKDEGHHHHHH”, the “soluble on expression in E. coli” value is recorded as “not soluble”.
As for “MGSDKIHHHHHHMSIVDKFGEKVGEIAENDPVKARKLLLAGYRLQEKRLALFPDRKLPMSGQYVAKIVMNNIIQALAKPENAAMVSIFVPGELLTAAGLTPYSVEALSCFIAGTKCEQAFLRQTEKEGFPETMCSYHRVFLGAALNGIVPKPKCMVYTNLACDGNMMTFPYLKERYEIPSFYIDVPYEKNYDSVMYVAKQLRELKSFLQDVTGREITEESVKKAVDKSKIASNNYYRQLHLRKGHDIASTLTNELYALFMCHLLAGTDESVRYTQLLRDDVRRAPAGDGFHVLWMHTMPFLQDAVKDVFNYSDTIHISASDFIADGFRSMESDDPYEALAEKMVYCIYNGSVNQRIDEAKELADTVGADGAVLFAHWGCKNTIGASSLIKRSLEREGLPTMVLDGDGCNPANASDGQISTRLQAFVEMLTEQERN”, the “soluble on expression in E. coli” value is recorded as “not soluble”.
For the sequence “SPVYGVKAVPVERIRANSYNPNVTAPPEMRLLELSIWEDGYTMPCVCYYIEKEDVYELVDGYHRYKVMMTSPRIYKRENGLLPVTVIRKDLAERMASTIRHNRARGMHK”, the “soluble on expression in E. coli” value was “soluble”.
In the case of “GMFVSDQAEAKGFIEDSSLDLLLRNYYFNRDGKSGSGDRVDWTQGFLTTYESGFTQGTVGFGVDAFGYLGLKLDGTSDKTGTGNLPVMNDGKPRDDYSRAGGAVKVRISKTMLKWGEMQPTAPVFAAGGSRLFPQTATGFQLQSSEFEGLDLEAGHFTEGKEPTTVKSRGELYATYAGETAKSADFIGGRYAITDNLSASLYGAELEDIYRQYYLNSNYTIPLASDQSLGFDFNIYRTNDEGKAKAGDISNTTWSLAAAYTLDAHTFTLAYQKVHGDQPFDYIGFGRNGSGAGGDSIFLANSVQYSDFNGPGEKSWQARYDLNLASYGVPGLTFMVRYINGKDIDGTKMSDNNVGYKNYGYGEDGKHHETNLEAKYVVQSGPAKDLSFRIRQAWHRANADQGEGDQNEFRLIVDYPLSILHHHHHHHH” it was “soluble”; in that of “MEEKTILAQILQVLDLYAADMRKQFEALHEKFDSLQRQVQALNEKTDEMDKRIEEMDGRFERQIAQLERTVNERFERLEAKLGHIRVELVETQETVDFHSVKIAQHDRKIRHLLHAR”, “not soluble”.
In the case of “MYMKHIENGTRIEGEYIKNKVIQYNMSILTDEVKQPMEEVSLVVKNEEGKIFGGVTGTMYFYHLHIDFLWVDESVRHDGYGSQLLHEIEGIAKEKGCRLILLDSFSFQAPEFYKKHGYREYGVVEDHPKGHSQHFFEKRL” it was “soluble”; in that of “MGSDKIHHHHHHMPNQAWSYQMLHLDLAWLNQLYSEFQEQGLDLHIPQHKPLIIKDEFLYDAFTEMNETLFDAQKLIFEKEQSLLHCLIHLLLPHFILEEIQKPQYLYKDFLNLIDVISSSEGFISLEELAQRVGLSRYAIIRLFKANVGLTPHAFQINLKINQAREQLKKGVPLAELAVNLGFSDQSHFHKAFKAHTGVTPRQFQLAAAQ”, “not soluble”.
With “MFIVKAFRDIIINIKFLQEGINMSDNKTAGQKLWENLSYNCPNVWNKIGNDEIKNTFAFCEEYKSFLDKSKTEREFVRETKKLAESKGFVSIDDVIDSGKPLKPGMKVYRVFKNKIVALAVIGSQPPEKGFNLVGAHIDSPRIDLKPNPIYEANEMVFLKTHYYGGIKKYQWVTIPLSMHGVIIRKDGSSVEIVIGEDENDTVFTITDLLPHLAAEQMQKKMSEGITGENLNILFGSIPYNDEKVKEKVKLNILKLLNEKYNITEEDLLSAELELVPSFKAKDVGLDKSMVGAYGQDDRVCAYTALRAVLDLDNVDKTAVCVLTDKEEIGSMGNTGAQSSFLENFIADICALSSEKYTDIILRRCLSNSKMLSADVNAAIDPTYEGVYDKLNSSFIGKGIVLLKYTGARGKSGASDAHAEFMGEVRKLFNERKIFWQTAELGKVDQGGGGTIAQFVANMGMDVIDCGVAVLSMHSPFEVTSKVDIYMAYKAYREFLKYIK”, the “soluble on expression in E. coli” value is “soluble”.
As for “MQTSPEREAVIIRSGNSKILNTRSLMSDSRPEVLTEEDVLRLFPVLGGERRLTRRLLKALKITDINAVHARHINLRGAEFAHAALTDPAINVCYRLHGAEHLEEMRKGGAFTTVSNHPFGSLDGIMLIDIIGSVRPDYSVLVNGFLSMISCLRDSFIPVAPLKGMAGGLDSKHNVSGVKEVLNRLQNGQPVGFFPAGGISVYKGNRNRVMDSEWQASCAKMILVSQVPVYPIFFSGRNSWYFHFLGWLSWAIRTPRIPAELFNKRGHIFDVYIGDPIPPETIARFEKNPRELALFLYDRTYRLAPGHKKNK”, the “soluble on expression in E. coli” value is reported as “not soluble”.
Take “MSLKFYEDGNIPEIPNMYFIYGDGGTGKTSLLKQLKGHKFVFSFDMSSNVLIGDKDVDVVIFEHNDAPNIQAMVEECIIRAIQNAKYQVIVLDNVTALQNLVLENIDNAAKDNRQNYQKLQLWFRDLGTILKESGKTIYATAHQLDNGSSGISGEGRFQADMNEKTFNAFTSMFDLVGRIYLAAGERMIDLDPEKGNHAKNRLDDRKLIKANELIQSEKGEGHHHHHH”: the “soluble on expression in E. coli” value is “soluble”.
As for “MSLRRTCVIGAGPSGLAASRVLASRGIPFDCYEAGSGIGGLWRYGNDNGMSGVYASLHANISKESMSFSSLPMPDSYPVFPHHTQVLAYLESYAETFGLHGHIGLRTEVTSVRPVEGGGWEVTRRSRGGAEAETDRYTEVVVANGHHWDPRLPDPAVPGAGVFEGSAVHAHAYRSPEPYAGQRVLVVGMGNSGCEIAAEISRSAARTFLSARAVAHVFPKMLLGRPADHWAVSRAAVLPRFLKDPGMALLLRLARGAPALYGLPEPVRRPLAAHPSTSDELLVQLARGAVTAKPGIRSFGRDSVSFTDGSRETVDAVVYATGYSLSFPFLAPAVFAAPDGRTELYLRTVPPRLPGLFFMGLAQPAGAAFPLLEPQAEWIADLIEGEVLLPTPAEMTRSIARARERHDKVYAPSYRHGIEIDICAYRRALRRELREGHHHHHH”, the “soluble on expression in E. coli” value is listed as “not soluble”.
Regarding “MGHHHHHHSHIPFDYIVEKTVSTGVLVDVIGALLEVGNLTEDYRGLKLPFKIMDQYKEVLQCEAHNDQALEFQRFFQRLTGPQNVIALVSWRLSGIYKLKTLSNDPISKVIANPDIPEVEEIRVVVY”, the “soluble on expression in E. coli” value is “not soluble”.
In the case of “MNATAVAAAATGRQLHKFGGSSLADVKCYLRVANIMANYSHPGDLMVVSAAGSTTNQLISWLKLSQNDRLSAHQVQQSLRRYQHDLINGLLPPEMAEPLISEFIHDLERLAGLLDNKIDDVIYAEVVGHGEIWSARLMSALLNKLDMDAVWLDARRFLRAERAAQPQIDESRSYPLLQQLMAQHPHQRLVVTGFISRNEAGETVLLGRNGSDYSATQVGALAGAERVTIWSDVAGVYSADPRKVKDACLLPLLRLDEASELARLAAPVLHTRTLQPVSGSDIDLQLRCSYQPEQGSTRIERVLASGLGAKIVTSHDDVCLIELQIASHHDFSLAQKEIDLLLKRAQIKPLATGIHPDRNLLQLCYTSEVVNSALRVLEDAALPGKLSLREGLALVALVGAGVSKNPLHSHRFYQQLKDQPVEFVWQAEDGISMVAVLRLGPTEHLIQGLHQSLFRAEKRIGLMLFGKGNIGARWLELFAREQKSLSARSGFEFVLAGVVDSRRSLLSYDGLDASRTLAFYNDEAKEQDEESLFLWMRAHPFDDLVVLDVTASPSLAEQYLDFASYGFHVISANKLAGASSSNNYRQIRDAFAKTGRHWLYNATVGAGLPVNHTVRDLRDSGDSILAISGIFSGTLSWLFLQFDGSVPFTELVDQAWQQGLTEPDPRVDLSGQDVMRKLVILAREAGYDIEPNQVRVESLVPAGAESGSVDQFFENGEALNQQMIQRLEAAKEMGLVLRYVARFDANGKARVGVEAVRTDHPLASLLPCDNVFAIESRWYRDNPLVIRGPGAGRDVTAGAIQSDLNRLSQLL”, the “soluble on expression in E. coli” value is “not soluble”.
As for “MSLSDNVVTSKVGNVTEKELSKELRQQYGESTLYQMMLSKALLDKYKVSDEEAKKKVEEAKDKMGENFKSTLEQLGLKNEDELKEKMKPEIAFEKAIKATVTDKDVKNNYKPEMKVSHILVKDEKTAKEIKEKVNNGEDFAALANQYSEDTGSKEQGGEISGFAPGQTVKEFEEAAYKLDAGQVSDPVKTTYGYHIIKVTDKKELKPFDEVKDKIRKDIEQQRLQDTTGKWKQQVVNDLLKDADIKVNNKEFKDTFKFLEKEGHHHHHH”, the “soluble on expression in E. coli” value is reported as “soluble”.
Consider “MGSDKIHHHHHHMQRRVPLSPDAAHCSSCMLGHVCVPVGMPANEVEKLDELVKERVRVERGKSLYELDDPLDAVYGVRYGSLKTQLEDSSGQLQITGFHLPGEIVGLDGMIESKHVSSAVALEDSEVCVIRLPEIDRVSTQLPSLQQQFRRLMSREITRSHQMLATVGAMRSEQRLAAFLLNLSQRYAALGYSSTEFVLRMSREEIGNYLGLTLETVSRLFSRFGREGLIRINQREVRLIDLPGLKQLIGQESC”, for which the “soluble on expression in E. coli” value was “not soluble”.
In the case of “RYIEKALKRPGNILIGTLPVGLDFPTRIVAEIVDAPSLTIEEIMRKAKYYLREGADIIDIGMESGKTNVEFLESVLPEIKEKINAPLSLDTLNPKEIEAGEKEVDLILSVDFGTVEEILPSKPVVLIPTNMKEGKFIEDPIGRAKALEKLKEKALNLGYKGLILDPILEHYPNFSRSLVAFYLYRMRNPQDILLAGVGNITEMMDADSVGLNALLASIAGELKISLLLTTEVSPKATGSVRELKRGIDMVLLGGVKDVGINLLILKEKRRKEQKIEFAKTIIRAKKKPVKLEEVYFKIYVVGTELAVTAYKGTNPVMTIIGKEPNEIIDTILEHFSISPRHAFYLGRELEKAYTGLKIRRSYIQEEELFGDFYFEK” it was “not soluble”; in that of “MGSDKIHHHHHHMTDEGALFYEHSRRALSEIQNAAALLDQRKINATGRLRMSVPVLFGQLFAAPLMVKFAQQHADLQLEISFNDRNVDLIEEGFDLCIRIGALPDTTQLVAKPIGEHRMLLCASPDYLNKAGPVEHIEDLDQHATIADPHFGQMQKWRLQKENDEPLFIKPKAKLLLNDLQAIKNAALAGAGIAWLPDWLIQNELQDGKLVQVLDAMSSTAFPIHLVWPTLPFMPLKTRLAIDYLAQHLPPELNK”, “not soluble”.
For the sequence “MNQKLKVAIIGSGNIGTDLMIKVLRNAKYLEMGAMVGIDAASDGLARAQRMGVTTTYAGVEGLIKLPEFADIDFVFDATSASAHVQNEALLRQAKPGIRLIDLTPAAIGPYCVPVVNLEEHLGKLNVNMVTCGGQATIPMVAAVSRVAKVHYAEIVASISSKSAGPGTRANIDEFTETTSKAIEVIGGAAKGKAIIIMNPAEPPLIMRDTVYVLSAAADQAAVAASVAEMVQAVQAYVPGYRLKQQVQFDVIPESAPLNIPGLGRFSGLKTSVFLEVEGAAHYLPAYAGNLDIMTSAALATAERMAQSMLNA”, the “soluble on expression in E. coli” value is reported as “soluble”.
